Assay results published in patent US20240092919A1 (Ablynx, published 2024).
Where a chain is given by its changes, count along the chain named. Like-named read-outs stand apart in the source and are kept apart here. Values belong to the binder of their own block, whether it stands above or below them.

Experiments:
[1] = target: T1, Human T cell receptor on human primary T cells (human, UniProt P01848 1-140; P01850 1-176); assay: flow cytometry, human primary T cells
T1 construct: whole, on cells
Protocol: (§3) The ISVD variants were characterized for binding to CHO-K1 huTCR(2XN9)/huCD3 or to human and cynomolgus primary T cells. […] Next, cells were washed 3 times with FACS buffer and incubated with 1 μg/ml ANTI-FLAG® M2 Ab (Sigma, F1804) and washed again. […] Subsequently, cells were resuspended in FACS buffer supplemented with 5 nM TO-PRO®-3 Iodide to distinguish live from dead cells, which are removed during the gating procedure. Cells were analyzed using a FACS Array flow cytometer (BD Biosciences) and Flowing Software. First a P1 population which represented more than 80% of the total cell population was selected based on FSC-SSC distribution. In this gate, 10000 cells were counted during acquisition. From this population the TO-PRO®-3+cells (dead cells) were excluded and the mean fluorescence intensity (MFI) PE value was calculated.
T1 TCR alpha (looked up): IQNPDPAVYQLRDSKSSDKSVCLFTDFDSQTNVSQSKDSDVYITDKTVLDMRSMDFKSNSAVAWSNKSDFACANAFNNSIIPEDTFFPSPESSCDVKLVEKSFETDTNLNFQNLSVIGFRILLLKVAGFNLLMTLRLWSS
T1 TCR beta (looked up): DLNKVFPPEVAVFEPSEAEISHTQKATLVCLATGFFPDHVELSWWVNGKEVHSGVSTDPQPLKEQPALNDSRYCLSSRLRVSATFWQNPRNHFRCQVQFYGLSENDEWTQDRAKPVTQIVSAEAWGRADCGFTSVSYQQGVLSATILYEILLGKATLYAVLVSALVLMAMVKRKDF

[2] = target: T1, Human T cell receptor on human primary …; assay: flow cytometry, human primary T cells
Protocol: as §3

[3] = target: T2, Cynomolgus TCR(AEA41865/AEA41866)-zipper protein (cynomolgus monkey); assay: table head: SPR ProteOn XPR36; text: BLI, Octet RED384, 25 C, immobilised TCR-zipper
T2 construct: also called cyTCR-zipper protein; cynoTCR zipper
T2 TCR alpha: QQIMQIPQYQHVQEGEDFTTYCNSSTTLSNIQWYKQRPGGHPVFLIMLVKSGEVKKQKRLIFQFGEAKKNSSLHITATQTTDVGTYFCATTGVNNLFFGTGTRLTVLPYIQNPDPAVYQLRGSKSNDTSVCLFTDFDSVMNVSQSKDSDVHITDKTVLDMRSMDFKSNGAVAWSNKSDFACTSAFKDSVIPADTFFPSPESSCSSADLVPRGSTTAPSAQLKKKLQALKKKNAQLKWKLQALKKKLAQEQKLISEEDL
T2 TCR beta: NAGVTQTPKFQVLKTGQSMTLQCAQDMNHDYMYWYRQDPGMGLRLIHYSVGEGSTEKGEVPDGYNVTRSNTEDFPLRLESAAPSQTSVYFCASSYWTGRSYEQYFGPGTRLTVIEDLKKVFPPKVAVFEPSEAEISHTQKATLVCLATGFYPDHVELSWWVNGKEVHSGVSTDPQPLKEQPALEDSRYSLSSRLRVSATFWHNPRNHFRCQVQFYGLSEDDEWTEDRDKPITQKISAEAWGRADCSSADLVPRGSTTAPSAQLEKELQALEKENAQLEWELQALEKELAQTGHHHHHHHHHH
Protocol: (§1) Affinity constants (KD) were calculated applying a 1:1 interaction model using the ForteBio Data Analysis software.

[4] = target: T3, Cynomolgus TCR(AEA41865/AEA41866)-zipper protein (cynomolgus monkey); assay: BLI (Octet RED384), KD on cyTCR-zipper against KD on huTCR-zipper
T3 construct: also called cyTCR-zipper; cynoTCR-zipper protein
T3 TCR alpha: T2 TCR alpha
T3 TCR beta: T2 TCR beta
Protocol: as §1

[5] = target: T3, Cynomolgus …; assay: SPR (ProteOn XPR36, 37°C), KD on huTCR-zipper against KD on cyTCR-zipper
[6] = target: T2, Cynomolgus …; assay: SPR, ProteOn XPR36, 37 C, immobilised TCR-zipper
Description: In brief, huTCR-zipper or cyTCR-zipper protein was immobilized on a GLC sensor chip (between 100-200 RU) via amine coupling chemistry, using EDC/NHS for activation of the carboxyl groups on the chip surface (running buffer: HBS-EP+, pH7.4). […] Processed sensorgrams were fitted with the Langmuir model (1:1 interaction) using ProteOn Manager 3.1.0 (Version 3.1.0.6) software.

[7] = target: T4, Cynomolgus T cell receptor on the HSC-F cynomolgus T cell line (cynomolgus monkey); assay: flow cytometry competition with Flag3-His6-tagged anti-TCR ISVD ligand, HSC-F cells
T4 construct: whole, on cells; also called HSC-F cells; HSC-F cyno T cell line (NIBIO JCRB1164)
Protocol: (§4) Subsequently, cells were resuspended in FACS buffer supplemented with 1 μg/ml Propidium Iodide (PI, Sigma, P4170) to distinguish live from dead cells. Cells were analyzed using a FACS Array flow cytometer (BD Biosciences) using Flowing Software. First a P1 population which represented more than 80% of the total cell population was selected based on FSC-SSC distribution. In this gate, 10000 cells were counted during acquisition. From this population the Propidium iodide or TO-PRO©-3 Iodide positive cells (dead cells) were excluded and the median or Mean PE value was calculated.

[8] = target: T1, Human T cell receptor on human primary …; assay: flow cytometry competition with Flag3-His6-tagged anti-TCR ISVD ligand, human primary T cells
Protocol: as §4

[9] = target: T3, Cynomolgus …; assay: SPR (ProteOn XPR36), KD on cyTCR-zipper against KD on huTCR-zipper
Description: HuTCR-zipper or cyTCR-zipper protein was immobilized on a GLC sensor chip (between 100-200 RU) via amine coupling chemistry, using EDC/NHS for activation of the carboxyl groups on the chip surface (running buffer: HBS-EP+, pH7.4). […] Processed sensorgrams were fitted with the Langmuir model (1:1 interaction) using ProteOn Manager 3.1.0 (Version 3.1.0.6) software.

[10] = target: T5, Cynomolgus TCR(AEA41865/AEA41866)-zipper protein (cynomolgus); assay: SPR, ProteOn XPR36; TCR-zipper protein immobilised by amine coupling
T5 construct: also called cyTCR-zipper; cyTCR(AEA41865)-zipper
T5 TCR alpha: T2 TCR alpha
T5 TCR beta: T2 TCR beta
Protocol: Purified ISVDs were injected for 2 minutes (flow rate 45 μL/min) at different concentrations (between 0.2 nM and 200 nM) and dissociation was followed for 900 s. Regeneration was performed by injecting 3 M MgCl₂ for 3 minutes (flow rate 90 μL/min). […] Processed sensorgrams were analyzed based on the 1:1 interaction model (Langmuir binding model) using ProteOn Manager 3.1.0 (Version 3.1.0.6) software.

[11] = target: T6, human TCR on primary human T cells (human, UniProt P01848 1-140; P01850 1-176); assay: flow cytometry competition on primary human T cells; competitor Flag-tagged T017000624 at EC30
T6 construct: whole, on cells; also called human TCRαβ
T6 TCR alpha (looked up): T1 TCR alpha (looked up)
T6 TCR beta (looked up): T1 TCR beta (looked up)
Protocol: (§2) T cells (human T cells obtained as described in Example 3 and cyno T cells purchased from LPT laboratory, Germany) were thawed and counted on the day of the assay and diluted to a concentration of 1E+06 cells/mL, before adding 75 μL to the wells of a V-bottom 96-well plate (Greiner, cat no 651180). Cells were washed once with cold FACS buffer, before adding 25 μL Nb and 25 μL competitor to the wells. […] Cells were resuspended and plates were incubated at 4° C. for 90 minutes, after which plates were washed twice in cold FACS buffer. […] Plates were washed twice in cold FACS buffer. […] Plates were washed twice in cold FACS buffer. Cells were resuspended in 55 μL 1/1000 diluted Propidium Iodide (Sigma-Aldrich, cat no P4170) in FACS buffer before acquiring data on the MACSQuant X (Miltenyi biotec).

[12] = target: T7, cynomolgus TCR on primary cynomolgus T cells (cynomolgus); assay: flow cytometry competition on primary cynomolgus T cells; competitor Flag-tagged T017000623 at EC30
T7 construct: whole, on cells; also called cyno TCRαβ
Protocol: as §2

[13] = target: T8, cynomolgus CD123 on cells (cynomolgus monkey); assay: flow cytometry on transfected cells, cynomolgus CD123 against human CD123
T8 construct: whole, on cells; also called HEK293 cyno CD123; cynomolgus CD123 transfected cell lines

cynomolgus CD33 on cells = target: T9, cynomolgus CD33 on cells (cynomolgus monkey); assay: flow cytometry on transfected cells, cynomolgus CD33 against human CD33
T9 construct: whole, on cells; also called CHO cy CD33; CHO Flp-In cynoCD33

[14] = target: T1, Human T cell receptor on human primary …; assay: flow cytometry on human primary T cells; Flag3-His6-tagged ISVD, anti-FLAG M2 + PE goat anti-mouse; MFI (mean PE)
Protocol: as §3

[15] = target: T10, Cynomolgus TCR/cynomolgus CD3 complex on CHO-K1 cells (rhesus monkey (constant domains …)); assay: flow cytometry on CHO-K1 cyTCR/cyCD3 cells; Flag3-His6-tagged ISVD, anti-FLAG M2 + PE goat anti-mouse; MFI (mean PE) [panel CHO-K1 cyTCR/cyCD3]
T10 construct: also called CHO-K1 cyTCR/cyCD3
Protocol: Next, cells were washed 3 times with FACS buffer and incubated with 1 μg/ml ANTI-FLAG® M2 Ab (Sigma, F1804) and washed again. […] Subsequently, cells were resuspended in FACS buffer supplemented with 5 nM TO-PRO®-3 Iodide to distinguish live from dead cells, which are removed during the gating procedure. Cells were analyzed using a FACS Array flow cytometer (BD Biosciences) and Flowing Software. First a P1 population which represented more than 80% of the total cell population was selected based on FSC-SSC distribution. In this gate, 10000 cells were counted during acquisition. From this population the TO-PRO®-3+ cells (dead cells) were excluded and the mean fluorescence intensity (MFI) PE value was calculated.
T10 TCR alpha: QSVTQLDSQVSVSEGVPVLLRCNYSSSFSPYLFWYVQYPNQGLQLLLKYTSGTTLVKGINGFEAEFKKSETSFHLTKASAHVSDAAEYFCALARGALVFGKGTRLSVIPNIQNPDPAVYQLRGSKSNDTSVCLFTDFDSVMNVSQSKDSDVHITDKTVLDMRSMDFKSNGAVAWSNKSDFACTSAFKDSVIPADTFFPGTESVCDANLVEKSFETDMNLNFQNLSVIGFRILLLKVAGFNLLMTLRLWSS
T10 TCR beta: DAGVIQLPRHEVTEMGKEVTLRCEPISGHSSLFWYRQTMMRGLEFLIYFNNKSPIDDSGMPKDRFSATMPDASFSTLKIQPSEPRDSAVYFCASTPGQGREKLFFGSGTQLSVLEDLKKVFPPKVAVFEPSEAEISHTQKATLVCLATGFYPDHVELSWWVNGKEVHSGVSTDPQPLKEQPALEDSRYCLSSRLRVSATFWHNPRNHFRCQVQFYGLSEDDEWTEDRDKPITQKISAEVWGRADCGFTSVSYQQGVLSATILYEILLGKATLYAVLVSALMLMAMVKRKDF
T10 chain 3: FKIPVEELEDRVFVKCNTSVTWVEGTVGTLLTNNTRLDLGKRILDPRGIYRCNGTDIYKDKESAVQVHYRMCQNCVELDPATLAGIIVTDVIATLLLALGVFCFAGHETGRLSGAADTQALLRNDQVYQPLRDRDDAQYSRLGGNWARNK
T10 chain 4: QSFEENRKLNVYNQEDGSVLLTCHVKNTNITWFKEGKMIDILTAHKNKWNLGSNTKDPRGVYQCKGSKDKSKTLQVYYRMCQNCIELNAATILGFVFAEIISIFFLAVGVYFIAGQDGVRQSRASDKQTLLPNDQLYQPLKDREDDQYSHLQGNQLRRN
T10 chain 5: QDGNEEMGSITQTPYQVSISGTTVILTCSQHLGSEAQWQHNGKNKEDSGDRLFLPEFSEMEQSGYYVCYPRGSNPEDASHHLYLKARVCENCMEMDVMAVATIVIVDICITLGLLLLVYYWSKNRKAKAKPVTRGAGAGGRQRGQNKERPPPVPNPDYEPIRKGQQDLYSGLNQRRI
T10 chain 6: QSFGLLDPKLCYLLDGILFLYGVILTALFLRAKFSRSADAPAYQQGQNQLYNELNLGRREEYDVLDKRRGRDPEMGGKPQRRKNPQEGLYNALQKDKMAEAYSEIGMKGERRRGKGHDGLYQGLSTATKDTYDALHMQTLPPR

EC50 [1]: 140 nM
EC50 [2]: 83 nM
Kd [3]: 170 nM
B1: T0170056G05 (VHH, not shown: small tags and cut ends)
VHH: EVQLVESGGGLVQPGGSLRLSCVASGDVHKINFLGWYRQAPGKEREKVAHISIGDQTDYADSAKGRFTISRDESKNMVYLQMNSLKPEDTAVYFCRAFSRIYPYDYWGQGTLVTVSS
notes: also called T01700056G05; parental anti-TCR ISVD

difference in human-cynomolgus cross-reactivity based on KD [4]: 4.5 fold
B2: T0170056G05 (VHH, not shown: small tags and cut ends)
VHH: B1 VHH
notes: as for B1

delta for human-cynomolgus cross-reactivity based on KD [5]: 1.8 fold
B3: T017000680 (VHH)
VHH: B1 VHH with E1D, L11V, D27Y, L34Y, M77T, K86R, V92A, F94Y, F98L, Y102W

Kd [6]: 4.9 nM
IC50 [7]: 730 nM
IC50 [8]: 100 nM
B4: T017000680 (VHH)
VHH: B1 VHH with E1D, L11V, D27Y, L34Y, M77T, K86R, V92A, F94Y, F98L, Y102W

difference in human-cynomolgus cross-reactivity based on KD [9]: 2.6 fold
B5: T017000624 (VHH, not shown: small tags and cut ends)
VHH: B1 VHH with L11V, D27Y, L34Y, M77T, K86R, V92L, F94Y, F98L, Y102W

Kd [10]: 11 nM
IC50 [11]: 190 nM
IC50 [12]: 250 nM
B6: T017000698 (bispecific antibody)
chain: DVQLVESGGGVVQPGGSLRLSCVASGYVHKINFYGWYRQAPGKEREKVAHISIGDQTDYADSAKGRFTISRDESKNTVYLQMNSLRPEDTAAYYCRALSRIWPYDYWGQGTLVTVSSGGGGSGGGSEVQLVESGGGVVQPGGSLRLSCAASGFTFRSFGMSWVRQAPGKGPEWVSSISGSGSDTLYADSVKGRFTISRDNSKNTLYLQMNSLRPEDTALYYCTIGGSLSRSSQGTLVTVSSA
notes: also called T017000680-9GS-ALB23002-A; TCE01-9GS-ALB23002-A

difference in EC50 between human and cynomolgus monkey [13]: 3 fold
B7: monovalent CD123 building block (VHH)
VHH: EVQLVESGGGVVQPGGSLRLSCAASGVIFSGNVMGWYRRQAPGKEREWVAAIAEGGSILYRDSVKGRFTISRDNAKNTVYLQMNSLRPEDTALYYCNSHPPVLPYWGQGTLVTVSS

difference in EC50 between human and cynomolgus monkey (cynomolgus CD33 on cells): < 2 fold
B8: monovalent CD33 building block (VHH)
VHH: EVQLVESGGGVVQPGGSLRLSCAASGGVFRLNSMGWFRQAPGKQRELVAIITSDGDTNYADSVKGRFTISRDQAKNTVYLQMNSLRPEDTALYYCQITYSTSSYSFPINTWGQGTLVTVSS

binding result [14]: no binding (tested: 3e-6 M)
binding result [15]: no binding (tested: 3e-6 M)
B9: cAbLys3 (VHH, not shown: small tags and cut ends)
VHH: DVQLQASGGGSVQAGGSLRLSCAASGYTIGPYCMGWFRQAPGKEREGVAAINMGGGITYYADSVKGRFTISQDNAKNTVYLLMNSLEPEDTAIYYCAADSTIYASYYECGHGLSTGGYGYDSWGQGTQVTVSS
notes: also called irrelevant anti-egg lysozyme ISVD
